This is an account of results in patent publication US20240035010, “COMPOSITIONS COMPRISING A VARIANT POLYPEPTIDE AND USES THEREOF” (Arbor Biotechnologies, Inc., published 2024).

Common to all, as to assay: cell_activity; PAM 5'-ATTG-3'
Holding throughout (settings): tags: pcDNA3.1 expression

For series [1], the target named is T1, variant nuclease K35G combination (P14R, D32R, I61R, E311R, K35G).
T1 chain: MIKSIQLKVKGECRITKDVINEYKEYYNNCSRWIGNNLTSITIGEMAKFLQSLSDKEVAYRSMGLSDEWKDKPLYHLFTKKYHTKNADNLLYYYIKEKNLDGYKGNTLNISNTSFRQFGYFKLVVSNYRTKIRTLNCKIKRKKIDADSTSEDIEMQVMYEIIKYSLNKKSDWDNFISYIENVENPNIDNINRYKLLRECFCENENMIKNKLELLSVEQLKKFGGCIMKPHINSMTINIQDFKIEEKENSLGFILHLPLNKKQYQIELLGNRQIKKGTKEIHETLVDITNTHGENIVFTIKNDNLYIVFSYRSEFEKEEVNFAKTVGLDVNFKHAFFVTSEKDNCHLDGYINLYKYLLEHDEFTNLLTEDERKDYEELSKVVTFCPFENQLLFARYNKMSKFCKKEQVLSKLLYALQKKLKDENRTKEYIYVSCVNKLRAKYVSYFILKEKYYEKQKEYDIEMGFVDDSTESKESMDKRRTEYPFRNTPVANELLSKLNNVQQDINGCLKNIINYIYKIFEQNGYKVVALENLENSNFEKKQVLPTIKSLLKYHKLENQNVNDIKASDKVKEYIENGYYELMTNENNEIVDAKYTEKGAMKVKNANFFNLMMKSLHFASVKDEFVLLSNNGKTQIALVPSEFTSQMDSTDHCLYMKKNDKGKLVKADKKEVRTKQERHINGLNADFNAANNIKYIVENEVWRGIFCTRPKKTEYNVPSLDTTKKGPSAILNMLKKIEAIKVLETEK

The target of series [2] is T2, variant nuclease T338G combination (P14R, D32R, I61R, E311R, T338G).
T2 chain: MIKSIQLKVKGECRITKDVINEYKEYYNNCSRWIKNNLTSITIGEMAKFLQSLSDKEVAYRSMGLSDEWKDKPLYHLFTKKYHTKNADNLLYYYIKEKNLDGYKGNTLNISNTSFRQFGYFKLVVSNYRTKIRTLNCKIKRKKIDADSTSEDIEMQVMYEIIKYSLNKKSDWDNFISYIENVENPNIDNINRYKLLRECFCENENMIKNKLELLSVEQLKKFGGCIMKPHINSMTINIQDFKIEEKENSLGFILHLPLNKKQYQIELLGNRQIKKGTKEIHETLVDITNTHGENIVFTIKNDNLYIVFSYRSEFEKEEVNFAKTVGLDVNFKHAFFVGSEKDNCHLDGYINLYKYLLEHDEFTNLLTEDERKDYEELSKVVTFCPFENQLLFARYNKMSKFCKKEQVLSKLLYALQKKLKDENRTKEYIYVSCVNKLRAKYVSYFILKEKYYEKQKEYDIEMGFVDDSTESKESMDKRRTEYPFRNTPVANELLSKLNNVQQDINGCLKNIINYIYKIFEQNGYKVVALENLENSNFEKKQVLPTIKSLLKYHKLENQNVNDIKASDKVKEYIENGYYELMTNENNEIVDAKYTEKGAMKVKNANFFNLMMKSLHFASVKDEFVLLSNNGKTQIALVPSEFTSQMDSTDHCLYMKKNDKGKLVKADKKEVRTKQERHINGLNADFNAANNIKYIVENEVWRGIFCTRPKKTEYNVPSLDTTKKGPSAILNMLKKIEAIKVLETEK

In series [3] the target is T3, variant nuclease 7 substitutions D590G/E154G/E736G (P14R, D32R, I61R, E311R, D590G, E154G, E736G).
T3 chain: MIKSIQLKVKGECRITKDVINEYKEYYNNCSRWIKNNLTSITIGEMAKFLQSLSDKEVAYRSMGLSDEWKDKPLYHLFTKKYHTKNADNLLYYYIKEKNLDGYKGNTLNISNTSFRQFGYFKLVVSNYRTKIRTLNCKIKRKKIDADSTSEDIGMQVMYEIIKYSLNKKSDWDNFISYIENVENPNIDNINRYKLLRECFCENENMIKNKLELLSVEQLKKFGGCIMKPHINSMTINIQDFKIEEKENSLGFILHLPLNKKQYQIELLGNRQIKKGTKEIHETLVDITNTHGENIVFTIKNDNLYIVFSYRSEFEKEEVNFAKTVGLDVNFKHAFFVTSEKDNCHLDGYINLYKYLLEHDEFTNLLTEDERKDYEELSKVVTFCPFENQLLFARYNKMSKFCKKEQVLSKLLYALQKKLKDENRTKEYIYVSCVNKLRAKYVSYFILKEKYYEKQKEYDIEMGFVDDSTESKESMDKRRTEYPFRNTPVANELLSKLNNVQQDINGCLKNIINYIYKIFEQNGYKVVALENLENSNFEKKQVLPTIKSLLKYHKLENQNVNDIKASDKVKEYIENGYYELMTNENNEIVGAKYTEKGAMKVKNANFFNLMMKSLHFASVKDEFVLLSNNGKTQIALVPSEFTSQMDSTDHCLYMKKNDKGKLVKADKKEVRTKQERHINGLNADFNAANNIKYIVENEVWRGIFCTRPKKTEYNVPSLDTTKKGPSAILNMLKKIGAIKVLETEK

B1: EMX1 crRNA ; EMX1 target (ssRNA ; dsDNA)
RNA: CUUGUUGUAUAUGUCCUUUUAUAGGUAUUAAACAACCCGCCGCUUCCUGAGCCAUC
DNA 1: CCGCCGCTTCCTGAGCCATC
DNA 2: GATGGCTCAGGAAGCGGCGG
Take B1: the values for the indel editing activity in series [1], in series [2] and in series [3] were 6.93 fold of WT, 7.58 fold of WT and 10.7 fold of WT, respectively.
